From PMC4691241, “Activation of ULK Kinase and Autophagy by GABARAP Trafficking from the Centrosome Is Regulated by WAC and GM130” (Molecular Cell, 2015)

B1: recombinant WAC 320–647 (domain or fragment, human, UniProt Q9BTA9 320-647, looked up)
chain: TTPSTSSASGLNPTSAPPTSASAVPVSPVPQSPIPPLLQDPNLLRQLLPALQATLQLNNSNVDISKINEVLTAAVTQASLQSIIHKFLTAGPSAFNITSLISQAAQLSTQAQPSNQSPMSLTSDASSPRSYVSPRISTPQTNTVPIKPLISTPPVSSQPKVSTPVVKQGPVSQSATQQPVTADKQQGHEPVSPRSLQRSSSQRSPSPGPNHTSNSSNASNATVVPQNSSARSTCSLTPALAAHFSENLIKHVQGWPADHAEKQASRLREEAHNMGTIHMSEICTELKNLRSLVRVCEIQATLREQRILFLRQQIKELEKLKNQNSFMV
notes: human WAC isoform 1, residues 320-647 (the C-terminal half, CT); source: recombinant
B2: GST-WAC FL (natural protein, human, UniProt Q9BTA9 1-647, looked up)
chain: MVMYARKQQRLSDGCHDRRGDSQPYQALKYSSKSHPSSGDHRHEKMRDAGDPSPPNKMLRRSDSPENKYSDSTGHSKAKNVHTHRVRERDGGTSYSPQENSHNHSALHSSNSHSSNPSNNPSKTSDAPYDSADDWSEHISSSGKKYYYNCRTEVSQWEKPKEWLEREQRQKEANKMAVNSFPKDRDYRREVMQATATSGFASGMEDKHSSDASSLLPQNILSQTSRHNDRDYRLPRAETHSSSTPVQHPIKPVVHPTATPSTVPSSPFTLQSDHQPKKSFDANGASTLSKLPTPTSSVPAQKTERKESTSGDKPVSHSCTTPSTSSASGLNPTSAPPTSASAVPVSPVPQSPIPPLLQDPNLLRQLLPALQATLQLNNSNVDISKINEVLTAAVTQASLQSIIHKFLTAGPSAFNITSLISQAAQLSTQAQPSNQSPMSLTSDASSPRSYVSPRISTPQTNTVPIKPLISTPPVSSQPKVSTPVVKQGPVSQSATQQPVTADKQQGHEPVSPRSLQRSSSQRSPSPGPNHTSNSSNASNATVVPQNSSARSTCSLTPALAAHFSENLIKHVQGWPADHAEKQASRLREEAHNMGTIHMSEICTELKNLRSLVRVCEIQATLREQRILFLRQQIKELEKLKNQNSFMV
notes: human WAC isoform 1, full length; also called recombinant GST-WAC; source: recombinant

Tests used:
[1] = molecular target: T1, Strep-Tag II-GM130, purified (human, UniProt Q08379 1-1002); assay: pull-down; purified Strep II-GM130 incubated with recombinant WAC 320–647 before binding to recombinant GST or GST-GABARAP beads, immunoblot; conditions: both partners purified
T1 construct: human GM130 isoform 1; also called Strep II-GM130; purified GM130; source: purified
T1 sequence (looked up): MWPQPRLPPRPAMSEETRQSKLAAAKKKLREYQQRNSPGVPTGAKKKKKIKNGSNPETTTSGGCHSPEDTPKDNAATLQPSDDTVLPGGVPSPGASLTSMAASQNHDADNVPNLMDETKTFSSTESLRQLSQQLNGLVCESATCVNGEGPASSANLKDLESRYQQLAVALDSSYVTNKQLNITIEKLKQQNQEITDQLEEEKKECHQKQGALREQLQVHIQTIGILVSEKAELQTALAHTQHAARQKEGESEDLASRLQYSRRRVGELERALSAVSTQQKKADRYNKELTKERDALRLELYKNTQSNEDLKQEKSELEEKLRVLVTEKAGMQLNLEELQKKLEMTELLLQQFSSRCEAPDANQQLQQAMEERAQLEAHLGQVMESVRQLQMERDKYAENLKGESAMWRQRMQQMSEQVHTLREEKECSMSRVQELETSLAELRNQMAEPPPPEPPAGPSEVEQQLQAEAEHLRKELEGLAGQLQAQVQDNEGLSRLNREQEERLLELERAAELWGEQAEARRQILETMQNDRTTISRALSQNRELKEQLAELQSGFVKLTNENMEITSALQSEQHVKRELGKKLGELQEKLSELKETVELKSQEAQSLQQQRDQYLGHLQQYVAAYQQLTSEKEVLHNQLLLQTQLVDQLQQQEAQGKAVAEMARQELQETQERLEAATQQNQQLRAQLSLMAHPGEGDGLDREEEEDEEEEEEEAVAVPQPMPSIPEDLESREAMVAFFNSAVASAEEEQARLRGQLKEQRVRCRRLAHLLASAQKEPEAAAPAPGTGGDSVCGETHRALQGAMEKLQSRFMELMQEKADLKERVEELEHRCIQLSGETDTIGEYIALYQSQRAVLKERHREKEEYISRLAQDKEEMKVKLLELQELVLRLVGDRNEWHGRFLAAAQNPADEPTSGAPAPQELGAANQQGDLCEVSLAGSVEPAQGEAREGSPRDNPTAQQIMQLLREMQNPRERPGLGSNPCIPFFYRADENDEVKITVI

[2] = molecular target: T1, Strep-Tag II-GM130, purified; assay: pull-down; GST-WAC FL or ΔCC incubated with purified Strep-Tag II-GM130; GST-WAC monitored by Ponceau S; conditions: both partners purified

Binder | binding result [1] | binding result [2]
B1 | binds | 
B2 |  | binds
